Test results from patent US20130177981A1 (WISCONSIN ALUMNI RESEARCH FOUNDATION, published 2013).
Read-outs that look alike come from different tables or passages of the source. Where no end group is shown, it is not given here. [ ]: non-standard residue; d: D form. APC = trans-3-aminopyrrolidine-4-carboxylic acid; ACPC = trans-2-aminocyclopentanecarboxylic acid; β3hR = N=C(N)NCCC[C@H](N)CC(=O)O; β3hT = C[C@@H](O)[C@H](N)CC(=O)O; β3hE = N[C@@H](CCC(=O)O)CC(=O)O; β3hA = C[C@H](N)CC(=O)O

B1: chimeric CHR α/β-peptide 8 (peptide)
peptide: Ac-TTWEAWDRAIAEYA[ACPC]RIE[ACPC]LI[APC]AAQ[β3hE]QQ[β3hE]KNE[ACPC]AL[APC]EL-NH2
modifications: not fully specified
notes: Made from 7 by replacing two β3-hArg residues with APC
B2: α/β-peptide 9 (peptide)
peptide: Ac-[β3hT]TWE[ACPC]WD[β3hR]AIA[β3hE]YA[ACPC]RIE[ACPC]LI[β3hR]AAQ[β3hE]QQ[β3hE]KNE[ACPC]AL[β3hR]EL
modifications: not fully specified
notes: to be checked against the listing
B3: (α+α/β)-peptide 5 (peptide)
peptide: Ac-TTWEAWDRAIAEYAARIEALI[β3hR]AAQ[β3hE]QQ[β3hE]KNE[β3hA]AL[β3hR]EL
notes: Chimera of α-peptide 3 and α/β-peptide 4; also called oligomer 5
B4: α-peptide 3 (peptide)
peptide: Ac-TTWEAWDRAIAEYAARIEALIRAAQEQQEKNEAALREL
notes: also called T-2635; CHR α-peptide 3
B5: α/β-peptide 7 (peptide)
peptide: Ac-TTWEAWDRAIAEYA[ACPC]RIE[ACPC]LI[β3hR]AAQ[β3hE]QQ[β3hE]KNE[ACPC]AL[β3hR]EL
modifications: also: other residues as in 6
notes: also called oligomer 7
B6: α/β-peptide 11 (peptide)
peptide: Ac-A[β3hE]YA[ACPC]RIE[ACPC]LI[APC]AAQ[β3hE]QQ[β3hE]KNE[ACPC]AL[APC]EL
notes: also called oligomer 11; truncated α/β-peptide 11
B7: α/β-peptide 4 (peptide)
peptide: Ac-[β3hT]TWE[β3hA]WD[β3hR]AIA[β3hE]YA[β3hA]RIE[β3hA]LI[β3hR]AAQ[β3hE]QQ[β3hE]KNE[β3hA]AL[β3hR]EL
notes: also called oligomer 4
B8: α/β-peptide 10 (peptide)
peptide: Ac-[β3hT]TWE[ACPC]WD[APC]AIA[β3hE]YA[ACPC]RIE[ACPC]LI[APC]AAQ[β3hE]QQ[β3hE]KNE[ACPC]AL[APC]EL-NH2
notes: Made from 9 by replacing the three β3-hArg residues with APC; also called foldamer 10
B9: α/β foldamer 16 (peptide)
peptide: Ac-[β3hR]TWE[β3hE]WD[β3hR]AIA[β3hE]YA[ACPC]RIE[ACPC]LI[APC]AAQ[ACPC]QQ[APC]KNE[ACPC]AL[APC]EL-NH2
modifications: not fully specified
notes: also called compound 16; peptide 16
B10: α/β foldamer 17 (peptide)
peptide: Ac-[β3hR]TWE[β3hE]WD[β3hR]AIA[β3hE]YA[β3hR]RIE[β3hE]LI[β3hR]AAQ[β3hE]QQ[β3hR]KNE[β3hE]AL[β3hR]EL-NH2
notes: also called compound 17; peptide 17
B11: α/β-peptide 6 (peptide)
peptide: Ac-TTWEAWDRAIAEYA[β3hA]RIE[β3hA]LI[β3hR]AAQ[β3hE]QQ[β3hE]KNE[β3hA]AL[β3hR]EL
notes: also called (α+α/β)-peptide 6; oligomer 6

Assays:
NHR α-peptide 1 [1] = target: T1, NHR α-peptide 1 (HIV, N-terminus acetyl-capped); experiment: CD at 222 nm, thermal unfolding, 20 µM total peptide in PBS
T1 construct: Forms a six-helix bundle (three NHR and three CHR helices) when mixed with CHR peptides; also called NHR peptide 1

gp41-5 [2] = target: T2, gp41-5 (HIV); experiment: competition FP; displacement of Flu-C38 from gp41-5
T2 construct: also called gp41-5 protein construct; five-helix bundle protein
Description: Competition fluorescence polarization assays were conducted in black 96-well plates. […] A second stock plate was prepared containing serial dilutions of peptide inhibitors in DMSO. The peptide stock solutions were transferred to the assay plate (1 μL per well). […] All experimental conditions were carried out in duplicate, and each peptide was assayed in 2-3 independent experiments. Data analysis was carried out in GraphPad Prism. Raw mP data from each experiment were fit to a sigmoidal dose response and normalized to the resulting parameters for the top and bottom of the curve. All experiments included at least one compound showing complete inhibition at the highest concentrations tested. Normalized data from multiple independent runs of the each oligomer were combined and globally fit to an exact analytical expressions for FP competitive binding with Kᵢ as the only floating parameter.

gp41-5 [3] = target: T2, gp41-5; experiment: competition FP on gp41-5
gp41-5 [4] = target: T2, gp41-5; experiment: competition FP; displacement of Flu-C38 from gp41-5; remark: listed apart in the source
NHR α-peptide 1 [5] = target: T1, NHR α-peptide 1; experiment: CD at 222 nm, thermal unfolding, 20 µM total peptide in PBS; remark: listed apart in the source
gp41 of HIV-1 strain HC4 = gp41 of HIV-1 strain HC4 (HIV-1 strain HC4); experiment: cell-based or functional assay
[6] = target: gp41 of HIV-1 strain NL4-3 (HIV-1 strain NL4-3); experiment: cell-based or functional assay
[7] = target: T3, gp41 of the envelope glycoprotein of the HIV-1 clone HxB2 (HIV-1 clone HxB2, UniProt P04578 33-856); experiment: cell-based or functional assay
[8] = target: gp41 of HIV-1 strain DJ258 (HIV-1 strain DJ258); experiment: cell-based or functional assay
[9] = target: gp41 of HIV-1 strain CC 1/85 (HIV-1 strain CC 1/85); experiment: cell-based or functional assay
[10] = target: T3, gp41 of the envelope glycoprotein of …; experiment: cell-based or functional assay; remark: listed apart in the source
[11] = target: the molecule itself; experiment: crystal structure of 10 alone (self-assembly)
gp41-5 [12] = target: T2, gp41-5; experiment: competition FP; displacement of Flu-C38 from gp41-5; remark: listed apart in the source

| Binder | Tm,app of the 1:1 NHR + CHR mixture (NHR α-peptide 1 [1]) [° C.] | Ki (gp41-5 [2]) [nM] | Ki (gp41-5 [4]) [nM] | Inhibition of HIV-1 infectivity, IC50 (nM), HC4 (gp41 of HIV-1 strain HC4) [nM] | Inhibition of HIV-1 infectivity, IC50 (nM), NL4-3 [6] [nM] | Cell-cell fusion inhibition IC50 [7] [nM] | Inhibition of HIV-1 infectivity, IC50 (nM), DJ258 [8] [nM] | Inhibition of HIV-1 infectivity, IC50 (nM), CC 1/85 [9] [nM] | Cell-Cell Fusion IC50 [10] [nM] | other results |
| --- | --- | --- | --- | --- | --- | --- | --- | --- | --- | --- |
| B1 | 65 |  |  |  |  |  |  |  |  |  |
| B2 |  | 83 | 83 |  |  |  |  |  |  | fold higher affinity than 4 (gp41-5 [3]): 50 fold; fold improvement in Ki relative to 4 (gp41-5 [3]): > 45 fold |
| B3 | 67 | < 0.2 | 0.2 | 55 | 10 | 7 | 280 | 270 | 7 | Tm of the 1:1 NHR + CHR mixture (NHR α-peptide 1 [5]): 69 ° C. |
| B4 | 77 | < 0.2 | 0.2 | 27 | 5 | 9 | 58 | 140 | 9 | Tm of the 1:1 NHR + CHR mixture (NHR α-peptide 1 [5]): 77 ° C. |
| B5 |  | 0.4 | 0.4 |  |  |  |  |  |  | fold higher affinity relative to 6 (gp41-5 [3]): > 30 fold; fold improvement in binding relative to 6 (gp41-5 [3]): 40 fold |
| B6 |  | > 10000 |  |  |  |  |  |  |  |  |
| B7 |  | 3800 | 3800 | 590 | 700 | 390 | 960 | 1300 | 390 | fold weaker binding than α-peptide 3 (gp41-5 [3]): > 10000 fold |
| B8 | 55 | 9 | 9 | 59 | 28 | 5 | 110 | 180 | 5 | Tm of the 1:1 NHR + CHR mixture (NHR α-peptide 1 [5]): 55 ° C.; binding result [11]: binds; fold difference in affinity against 5 (gp41-5 [3]): > 45 fold; fold enhanced binding relative to 4 (gp41-5 [3]): ~380 fold; fold improvement in Ki relative to 9 (gp41-5 [3]): ~10 fold |
| B9 |  |  |  |  |  |  |  |  |  | Ki (gp41-5 [12]): 3 nM |
| B10 |  |  |  |  |  |  |  |  |  | Ki (gp41-5 [12]): 11 nM |
| B11 |  | 15 | 15 |  |  |  |  |  |  |  |
